Source: patent US6846910B2, “Isolated proteins containing portions of FAPα and other proteins” (Ludwig Institute for Cancer Research, priority 1994, dated 2005)
Each block holds one molecule with its values, some of them ahead of it.

How the values were obtained:
[1] = molecular target: fibroblast activation protein alpha (human) (UniProt Q12884); assay: MHA rosetting assay on COS-1 cells transfected with pFAP.38
[2] = molecular target: fibroblast activation protein alpha (human) (UniProt Q12884); assay: MHA rosetting assay on SW872 liposarcoma cells
[3] = molecular target: T1, 170 kD FAPα dimer (Homo sapiens, UniProt Q12884, A207P/T229K/T354R); assay: Gelatin zymography with added treatments; type: biochemical
T1 construct: expressed in transfected cells; host or cells: 293 cells stably transfected with pFAP.38 (293-FAP)
T1 sequence (Q12884 1-760 A207P/T229K/T354R): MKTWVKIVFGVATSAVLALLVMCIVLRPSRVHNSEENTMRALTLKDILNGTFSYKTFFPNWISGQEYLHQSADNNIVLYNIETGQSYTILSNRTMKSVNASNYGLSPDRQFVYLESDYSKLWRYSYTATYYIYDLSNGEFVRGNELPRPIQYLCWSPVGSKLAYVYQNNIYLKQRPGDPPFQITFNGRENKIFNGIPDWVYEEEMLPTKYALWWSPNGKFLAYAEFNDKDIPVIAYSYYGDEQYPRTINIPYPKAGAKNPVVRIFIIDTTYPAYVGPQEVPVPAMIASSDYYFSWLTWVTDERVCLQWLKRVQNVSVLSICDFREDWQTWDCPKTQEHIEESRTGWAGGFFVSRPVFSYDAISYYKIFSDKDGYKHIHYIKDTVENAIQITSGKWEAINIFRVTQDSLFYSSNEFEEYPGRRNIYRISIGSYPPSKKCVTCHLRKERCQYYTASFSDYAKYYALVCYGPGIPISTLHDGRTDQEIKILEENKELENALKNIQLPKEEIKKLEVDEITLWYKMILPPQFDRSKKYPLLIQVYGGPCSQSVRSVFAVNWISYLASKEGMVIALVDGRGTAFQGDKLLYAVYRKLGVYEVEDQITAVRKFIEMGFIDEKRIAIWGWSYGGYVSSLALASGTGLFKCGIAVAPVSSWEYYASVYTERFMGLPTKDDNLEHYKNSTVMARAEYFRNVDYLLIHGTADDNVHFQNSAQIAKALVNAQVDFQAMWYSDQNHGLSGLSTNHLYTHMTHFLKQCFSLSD
Procedure: Extracts of 293-FAP cells were prepared, using an extraction buffer (0.15M NaCl, 0.05M Tris-HCl, pH 7.4, 10 mM MgCl2, 1 percent Triton X-114), were cleared by centrifugation (4,000×g, 10 minutes at 40° C.), and phase partitioned at 37° C. for 10-20 minutes. This was followed by further centrifugation (4000×g, 20 minutes at 20-25° C.) Detergent phases were diluted with buffer (0.15M NaCl, 0.05M Tris-HCl pH 7.4, 5 mM CaCl2, 5 mM MgCl2, 0.75% Empigen BB), and separated on concanavalin A-Sepharose following Rettig et al., supra. Any concanavalin A bound fractions were eluted with 0.25M methyl-α-D-mannopyranoside in elution buffer 0.15M NaCl,0.05M Tris-HCl, pH 7.4, 5 mM CaCl2, 5 mM MgCl2, 0.1% Triton X-100), mixed with zymography sample buffer (0.25M Tris-HCl, pH 6.8, 8% SDS, 40% glycerol, 0.01% bromophenol blue), at a 3:1 ratio, and used for further analysis.
Aliquots of sample were loaded onto polyacrylamide gels containing 0.1% of either of gelatin or casein. Electrophoresis was then carried out in a Biorad Mini-Protein II system,.at 20 mA constant current for 1.5-2 hours, until the bromophenol blue dye fronts of samples had reached the lower end of the gel. The gel was removed and incubated for one hour at 20-25° C. in a 2.5% aqueous solution of Triton X-100 on a rotary shaker. The Triton X-100 solution was decanted, and replaced with enzyme buffer (0.05M Tris-HCl, pH 7.5, 0.2M NaCl, 5 mM CaCl2, 5 mM MgCl2, 0.02% Brij 35). The gel was then incubated at 37° C. or 41° C., followed by staining or destaining at room temperature. Gels were stained with 0.5% of Coomassie Brilliant Blue G-250 in an aqueous solution of 30% methanol and 10% acetic acid for 15, 30, and 60 minutes, respectively. Subsequently, gels were incubated for 15 minutes in an aqueous solution of 30% CH3OH and 5% glycerol, followed by drying between sheets of cellophane.

[4] = system: gelatin; assay: Gelatin zymography of 293-FAP cell extracts; type: biochemical; settings: unboiled samples, approximately 170 kilodalton species
Procedure: (§1) Extracts of 293-FAP cells were prepared, using an extraction buffer (0.15M NaCl, 0.05M Tris-HCl, pH 7.4, 10 mM MgCl2, 1 percent Triton X-114), were cleared by centrifugation (4,000×g, 10 minutes at […]), and phase partitioned at 37° C. for 10-20 minutes. This was followed by further centrifugation (4000×g, 20 minutes at 20-25° C.) Detergent phases were diluted with buffer (0.15M NaCl, 0.05M Tris-HCl pH 7.4, 5 mM CaCl2, 5 mM MgCl2, 0.75% Empigen BB), and separated on concanavalin A-Sepharose following Rettig et al., supra. Any concanavalin A bound fractions were eluted with 0.25M methyl-α-D-mannopyranoside in elution buffer 0.15M NaCl,0.05M Tris-HCl, pH 7.4, 5 mM CaCl2, 5 mM MgCl2, 0.1% Triton X-100), mixed with zymography sample buffer (0.25M Tris-HCl, pH 6.8, 8% SDS, 40% glycerol, 0.01% bromophenol blue), at a 3:1 ratio, and used for further analysis.
(§2) Aliquots of sample were loaded onto polyacrylamide gels containing 0.1% of either of gelatin or casein. Electrophoresis was then carried out in a Biorad Mini-Protein II system,.at 20 mA constant current for 1.5-2 hours, until the bromophenol blue dye fronts of samples had reached the lower end of the gel. […]
Gelatinase activity was evaluated in accordance with Kleiner et al., Anal. Biochem. 218: 325-329 (1994), incorporated by reference in its entirety. […]

[5] = Membrane overlay assay for proteolytic activity; type: biochemical; settings: Ala-Pro-, Gly-Pro-, Lys-Pro-7-amino-4-trifluoromethyl coumarin
Procedure: Proteolytic activity for defined amino acid sequence motifs were tested, using a well known membrane overlay assay. See Smith et al, Histochem. J. 24(9): 637-647 (1992), incorporated by reference. Substrates were Ala-Pro-7-amino-4-trifluoromethyl coumarin, Gly-Pro-7-amino-4-trifluoromethyl coumarin, and Lys-Pro-7-amino-4-trifluromethyl coumarin.

[6] = system: casein; assay: Casein zymography of 293-FAP cell extracts; type: biochemical; settings: gel with 0.1% casein
Procedure: as §1
as §2, with “gel. The gel was removed and incubated for one hour at 20-25° C. in a 2.5% aqueous solution of Triton X-100 on a rotary shaker.” for “gel.”

Cell surface antigen expression (% positive cells) [1]: 40%
Cell surface antigen expression (% positive cells) [2]: > 95%
Molecule: monoclonal antibody F19

Molecule: OCCS [2-mercaptoethanol]
effect on gelatin degrading enzymatic activity ([3]; 5% added to extracts prior to SDS-PAGE): None of these treatments abolished the enzymatic activity

Molecule: NC(=O)CI [iodoacetamide]
effect on gelatin degrading enzymatic activity ([3]; 5 um added to extracts prior to SDS-PAGE): None of these treatments abolished the enzymatic activity

Molecule: O=C(O)CN(CCN(CC(=O)O)CC(=O)O)CC(=O)O [ethylenediamine N,N,N′,N′-tetraacetic acid]
effect on gelatin degrading enzymatic activity ([3]; 10 mM added to incubation buffer for gelatin zymography): None of these treatments abolished the enzymatic activity

B1: FAPα: recombinant fibroblast activation protein alpha from 293-FAP cells, approximately 170 kilodalton dimeric species by SDS-PAGE of unboiled samples (protein)
chain: T1 sequence (Q12884 1-760 A207P/T229K/T354R)
gelatin degrading activity [4]: observed to have gelatin degrading activity
cleavage of dipeptide substrates [5]: able to cleave all of the Ala-Pro, Gly-Pro, and Lys-Pro dipeptides tested
proteolytic activity with casein as substrate [6]: not observed
